Assay results from patent publication US6284879A, “Transport associated protein splice variants” (The General Hospital Corporation, priority 1998, dated 2001).

System: HLA class I (A2) on T2 cells
Assay: restoration of surface expression of HLA class I (A2) on transfected T2 cells, flow cytometry
Format: cell-based, human
Settings: for Mean fluorescence of HLA class 1 (A2) Mean ± SD / surface expression of HLA/MHC class I: T2 cells transfected with the named cDNAs; for Mean fluorescence of HLA class 1 (A2) Mean ± SD: four separate experiments, at least three stable clones; for surface expression of HLA/MHC class I: in words
Procedure: Plasmid DNAs were prepared using MAXI-PREP kits (Qiagen). TAP1- and TAP2-deficient T2 cells (donated by P. Cresswell, Howard Hughes Medical Institute, Yale University) (1-2×10^7 cells/ml) were transfected by electroporation with 10 μg of TAP1 and TAP2 or TAP2iso linear plasmid DNA in a 0.4-cm cuvette at 260 V and 960 μF. Subcloning and selection of transfectants were performed by culturing in the presence of hygromycin (250 μg/ml) or histidinol ([…]) for the PREP 4 and PREP8 vectors, respectively.
Immune complexes were detected with fluorescein isothiocyanate-conjugated goat anti-mouse IgG antibodies (Coulter, Hialeah, Fla.) and an Epics Elite flow cytometer (Coulter).
T2 cells were transfected with TAP1 cDNA in combination with TAP2 or TAPiso cDNAs as described above.

B1: TAP1: known TAP1 subunit (TAP1 A allele cDNA) (protein)
chain: MASSRCPAPRGCRCLPGASLAWLGTVLLLLADWVLLRTALPRIFSLLVPTALPLLRVWAVGLSRWAVLWLGACGVLRATVGSKSENAGAQGWLAALKPLAAALGLALPGLALFRELISWGAPGSADSTRLLHWGSHPTAFVVSYAAALPAAALWHKLGSLWVPGGQGGSGNPVRRLLGCLGSETRRLSLFLVLVVLSSLGEMAIPFFTGRLTDWILQDGSADTFTRNLTLMSILTIASAVLEFVGDGIYNNTMGHVHSHLQGEVFGAVLRQETEFFQQNQTGNIMSRVTEDTSTLSDSLSENLSLFLWYLVRGLCLLGIMLWGSVSLTMVTLITLPLLFLLPKKVGKWYQLLEVQVRESLAKSSQVAIEALSAMPTVRSFANEEGEAQKFREKLQEIKTLNQKEAVAYAVNSWTTSISGMLLKVGILYIGGQLVTSGAVSSGNLVTFVLYQMQFTQAVEVLLSIYPRVQKAVGSSEKIFEYLDRTPRCPPSGLLTPLHLEGLVQFQDVSFAYPNRPDVLVLQGLTFTLRPGEVTALVGPNGSGKSTVAALLQNLYQPTGGQLLLDGKPLPQYEHRYLHRQVAAVGQEPQVFGRSLQENIAYGLTQKPTMEEITAAAVKSGAHSFISGLPQGYDTEVDEAGSQLSGGQRQAVALARALIRKPCVLILDDATSALDANSQLQVEQLLYESPERYSRSVLLITQHLSLVEQADHILFLEGGAIREGGTHQQLMEKKGCYWAMVQAPADAPE
- Mean fluorescence of HLA class 1 (A2) Mean ± SD: 5.19 ± .35
- surface expression of HLA/MHC class I: no effect

B2: TAP1/TAP2: previously known TAP transporter, heterodimer of the TAP1 and TAP2 gene products (protein)
chain 1: MASSRCPAPRGCRCLPGASLAWLGTVLLLLADWVLLRTALPRIFSLLVPTALPLLRVWAVGLSRWAVLWLGACGVLRATVGSKSENAGAQGWLAALKPLAAALGLALPGLALFRELISWGAPGSADSTRLLHWGSHPTAFVVSYAAALPAAALWHKLGSLWVPGGQGGSGNPVRRLLGCLGSETRRLSLFLVLVVLSSLGEMAIPFFTGRLTDWILQDGSADTFTRNLTLMSILTIASAVLEFVGDGIYNNTMGHVHSHLQGEVFGAVLRQETEFFQQNQTGNIMSRVTEDTSTLSDSLSENLSLFLWYLVRGLCLLGIMLWGSVSLTMVTLITLPLLFLLPKKVGKWYQLLEVQVRESLAKSSQVAIEALSAMPTVRSFANEEGEAQKFREKLQEIKTLNQKEAVAYAVNSWTTSISGMLLKVGILYIGGQLVTSGAVSSGNLVTFVLYQMQFTQAVEVLLSIYPRVQKAVGSSEKIFEYLDRTPRCPPSGLLTPLHLEGLVQFQDVSFAYPNRPDVLVLQGLTFTLRPGEVTALVGPNGSGKSTVAALLQNLYQPTGGQLLLDGKPLPQYEHRYLHRQVAAVGQEPQVFGRSLQENIAYGLTQKPTMEEITAAAVKSGAHSFISGLPQGYDTEVDEAGSQLSGGQRQAVALARALIRKPCVLILDDATSALDANSQLQVEQLLYESPERYSRSVLLITQHLSLVEQADHILFLEGGAIREGGTHQQLMEKKGCYWAMVQAPADAPE
chain 2: MRLPDLRPWTSLLLVDAALLWLLQGPLGTLLPQGLPGLWLEGTLRLGGLWGLLKLRGLLGFVGTLLLPLCLATPLTVSLRALVAGASRAPPARVASAPWSWLLVGYGAAGLSWSLWAVLSPPGAQEKEQDQVNNKVLMWRLLKLSRPDLPLLVAAFFFLVLAVLGETLIPHYSGRVIDILGGDFDPHAFASAIFFMCLFSFGSSLSAGCRGGCFTYTMSRINLRIREQLFSSLLRQDLGFFQETKTGELNSRLSSDTTLMSNWLPLNANVLLRSLVKVVGLYGFMLSISPRLTLLSLLHMPFTIAAEKVYNTRHQEVLREIQDAVARAGQVVREAVGGLQTVRSFGAEEHEVCRYKEAKEQCRQLYWRRDLERALYLLIRRVLHLGVQMLMLSCGLQQMQDGELTQGSLLSFMIYQESVGSYVQTLVYIYGDMLSNVGAAEKVFSYMDRQPNLPSPGTLAPTTLQGVVKFQDVSFAYPNRPDRPVLKGLTFTLRPGEVTALVGPNGSGKSTVAALLQNLYQPTGGQVLLDEKPISQYEHCYLHSQVVSVGQEPVLFSGSVRNNIAYGLQSCEDDKVMAAAQAAHADDFIQEMEHGIYTDVGEKGSQLAAGQKQRLAIARALVRDPRVLILDEATSALDVQCEQALQDWNSRGDRTVLVIAHRLQTVQRAHQILVLQEGKLQKLAQL
- Mean fluorescence of HLA class 1 (A2) Mean ± SD: 7.59 ± .31
- surface expression of HLA/MHC class I: restored surface expression

B3: TAP1/TAP2iso: novel TAP heterodimer of TAP1 and splice variant TAP2iso, expressed from transfected cDNAs (protein)
chain 1: MASSRCPAPRGCRCLPGASLAWLGTVLLLLADWVLLRTALPRIFSLLVPTALPLLRVWAVGLSRWAVLWLGACGVLRATVGSKSENAGAQGWLAALKPLAAALGLALPGLALFRELISWGAPGSADSTRLLHWGSHPTAFVVSYAAALPAAALWHKLGSLWVPGGQGGSGNPVRRLLGCLGSETRRLSLFLVLVVLSSLGEMAIPFFTGRLTDWILQDGSADTFTRNLTLMSILTIASAVLEFVGDGIYNNTMGHVHSHLQGEVFGAVLRQETEFFQQNQTGNIMSRVTEDTSTLSDSLSENLSLFLWYLVRGLCLLGIMLWGSVSLTMVTLITLPLLFLLPKKVGKWYQLLEVQVRESLAKSSQVAIEALSAMPTVRSFANEEGEAQKFREKLQEIKTLNQKEAVAYAVNSWTTSISGMLLKVGILYIGGQLVTSGAVSSGNLVTFVLYQMQFTQAVEVLLSIYPRVQKAVGSSEKIFEYLDRTPRCPPSGLLTPLHLEGLVQFQDVSFAYPNRPDVLVLQGLTFTLRPGEVTALVGPNGSGKSTVAALLQNLYQPTGGQLLLDGKPLPQYEHRYLHRQVAAVGQEPQVFGRSLQENIAYGLTQKPTMEEITAAAVKSGAHSFISGLPQGYDTEVDEAGSQLSGGQRQAVALARALIRKPCVLILDDATSALDANSQLQVEQLLYESPERYSRSVLLITQHLSLVEQADHILFLEGGAIREGGTHQQLMEKKGCYWAMVQAPADAPE
chain 2: MRLPDLRPWTSLLLVDAALLWLLQGPLGTLLPQGLPGLWLEGTLRLGGLWGLLKLRGLLGFVGTLLLPLCLATPLTVSLRALVAGASRAPPARVASAPWSWLLVGYGAAGLSWSLWAVLSPPGAQEKEQDQVNNKVLMWRLLKLSRPDLPLLVAAFFFLVLAVLGETLIPHYSGRVIDILGGDFDPHAFASAIFFMCLFSFGSSLSAGCRGGCFTYTMSRINLRIREQLFSSLLRQDLGFFQETKTGELNSRLSSDTTLMSNWLPLNANVLLRSLVKVVGLYGFMLSISPRLTLLSLLHMPFTIAAEKVYNTRHQEVLREIQDAVARAGQVVREAVGGLQTVRSFGAEEHEVCRYKEAKEQCRQLYWRRDLERALYLLIRRVLHLGVQMLMLSCGLQQMQDGELTQGSLLSFMIYQESVGSYVQTLVYIYGDMLSNVGAAEKVFSYMDRQPNLPSPGTLAPTTLQGVVKFQDVSFAYPNRPDRPVLKGLTFTLRPGEVTALVGPNGSGKSTVAALLQNLYQPTGGQVLLDEKPISQYEHCYLHSQVVSVGQEPVLFSGSVRNNIAYGLQSCEDDKVMAAAQAAHADDFIQEMEHGIYTDVGEKGSQLAAGQKQRLAIARALVRDPRVLILDEATSALDVQCEQAKTLWKFMIF
- Mean fluorescence of HLA class 1 (A2) Mean ± SD: 11.16 ± .50
- surface expression of HLA/MHC class I: restored surface expression
- surface MHC class I expression, greater than in cells transfected with TAP1-TAP2 cDNAs (transfected T2 cells): 30%
